Test results as given in patent publication US12459987B2, “Monoclonal antibodies for prevention and treatment of herpes simplex viral infections” (priority 2019, dated 2025).
Positions count from the first letter of the chain named. Entries after “also recorded” stand apart in the source; their conditions may differ.

Key:
[1] = target: glycoprotein B of HSV-1 (gB-1) (Human herpesvirus 1, UniProt P10211); test: Luminex multiplex assay, binding to gB-1; conditions: Table 3 summary
Method: FIGS. 9A and 9B are graphs of median fluorescence intensity (MFI) versus IgG concentration (ng/ml), showing the binding of various recombinant antibodies to gB-1 as measured by Luminex multiplex assay.
BMPC-23 binds HSV-1 gB (gB-1). The gB-1 binding of the antibodies was determined by Luminex multiplex assay. Mixtures of antigen (gB-1)-conjugated microspheres (1,000 counts each) were added to each well of 96-well filter plates (Millipore). After washing with PBS containing 1% BSA, 0.05% Tween 20 and 0.05% NaN3, serially diluted recombinant antibodies (5E7, 19G7, 18G4, 22E10, 3A2, 17G3, 22D10, 32H6, 33B8, 25H7, BMPC-23, and S5V2-29) were added to the plates and incubated for 2 hours at room temperature, with mild agitation of the plates. Samples were diluted in PBS containing 1% cow milk, 1% BSA, 0.05% Tween 20 and 0.05% NaN3. After washing, PE goat anti-mouse IgG was added to the plates and incubated for 1 hour at room temperature with mild agitation. After washing, microspheres were resuspended in PBS containing 1% BSA, 0.05% Tween 20 and 0.05% NaN3 and fluorescent signals from each microsphere were measured in a Bio-Plex® 3D machine.
Finding gB-1 specific HSV antibodies. After Nojima culture (single B-cell culture), HSV-specific antibodies were cloned from germinal center B cells and tested for binding to HSV-1 gB-1 by Luminex multiplex assay as described above. FIGS. 9A and 9B show the gB-1 binding results for 10 antibodies in comparison with BMPC-23. With the exception of BMPC-23, the antibodies in Table 3 were derived from germinal center B cells (lymph nodes) taken 15-17 days after primary vaccination with ΔgD-2. BMPC-23 was derived from bone marrow plasmacytes taken 2 weeks post-boost with ΔgD-2. Nucleotide sequences and amino acid sequences for the heavy-chains and light chains are shown in Table 4, as are the amino acid sequences for the light chain and heavy chain CDR1, CDR2, and CDR3.

gB-1 = gB-1 (Human herpesvirus 1, UniProt P10211); test: Luminex competition: inhibition of binding of BMPC-23 human IgG to gB-1; design: species or system HSV-1; conditions: Table 3 summary
Method: FIGS. 10A-10G show the capacity of gB-1 specific mouse monoclonal IgG antibodies to inhibit binding of BMPC-23 human IgG antibodies to gB-1.
Finding BMPC-like antibodies. Nine out of 10 gB-1 specific mouse monoclonal IgG antibodies in FIG. 3 were tested for their capacity to inhibit binding of BMPC-23 human IgG antibodies to gB-1. Serially diluted, gB-1 specific mouse monoclonal antibodies or irrelevant, control mouse antibody (H33Lγ1) were incubated with gB-1 conjugated Luminex beads. After incubation, fixed concentration (2 ng/ml) of BMPC-23 human IgG antibodies were added to each well. After washing, mouse anti-human lgG-PE was added to detect binding of human BMPC-23 antibodies. […] Strong inhibition by HSV010-4 (>95% at 222 ng/ml), HSV010-7 (>90% at 222 ng/ml), and HSV010-34 (>80% at 222 ng/ml), shown in FIGS. 10B, 10F, and 10G, respectively, indicates these antibodies bind epitopes on gB-1 closely overlapping with the one recognized by BMPC-23. Therefore, similar protective efficacy as BMPC-23 is expected from these antibodies (experiments in progress). […] Protective efficacy of these antibodies need to be tested (experiments in progress).

[2] = system: HSV-2 G infected cell lysates; test: ELISA binding of recombinant antibodies to HSV-2 G infected cell lysates; design: species or system HSV-2 G strain; conditions: for Binding to HSV-lysate: Table 3 summary
Method: Binding of recombinant antibodies to HSV-2 G lysates was tested by ELISA. Both heavy and light chain V(D)J rearrangements were amplified from selected single B-cell culture wells (22D10, 32H6, 33B8, and 35H7) by standard RT-PCR. These cloned V(D)J rearrangements were introduced into expression vectors. Recombinant antibodies were obtained by co-transfection of these expression vectors into Expi293F cells. ≥4 mg of purified IgGs was obtained (not shown). […]
Briefly, mice were vaccinated with ΔgD-2 and then 16 days after vaccination, the draining, inguinal lymph nodes were harvested. GC B cells were isolated from these tissues and were cultured in Nojima cultures. Although overall cloning efficiency of GC B cells from these (shipped) tissues was lower than those from freshly isolated tissues (6% vs. 20%), 50 GC clones were obtained that were specific to HSV-2 G strain (HSV-2 G or HSV2-G) lysate. GC B cells from inguinal lymph nodes of mice vaccinated with ΔgD-2 were sorted directly into 96-well plates (1 cell/well). These GC B cells were then cultured in the presence of NB-21.2D9 feeder cells. After culture, presence of IgG was first determined by ELISA, and then the reactivity of culture supernatant IgG against HSV-2 G lysates (HSV-2 G) and uninfected Vero lysates were tested by ELISA.
Based on the obtained V(D)J sequences from each B-cell culture, paired heavy and light chains were re-expressed (as recombinant mouse IgG1 and IgG2c antibodies) in Expi293F cells (Kuraoka et al. Immunity 2016; DiLillo et al. Nature Medicine 2013). […] As expected, all recombinant antibodies reacted specifically with HSV-2 G lysates (FIG. 3). […] Binding of recombinant antibodies to HSV-2 G lysates was tested by ELISA. Both heavy and light chain V(D)J rearrangements were amplified from selected single B-cell culture wells (22D10, 32H6, 33B8, and 35H7) by standard RT-PCR. These cloned V(D)J rearrangements were introduced into expression vectors. Recombinant antibodies were obtained by co-transfection of these expression vectors into Expi293F cells. ≥4 mg of purified IgGs was obtained (not shown). […] These recombinant antibodies (≥4 mg each) were tested for identification of reacting antigen(s), in an in vitro FcγRIV activation assay (Promega FcγRIV ADCC Reporter Bioassay)(FIG. 4), and in vivo protection assay. […]

uninfected Vero lysate = test: ELISA binding to control uninfected Vero lysate
Method: Binding of recombinant antibodies to HSV-2 G lysates was tested by ELISA. Both heavy and light chain V(D)J rearrangements were amplified from selected single B-cell culture wells (22D10, 32H6, 33B8, and 35H7) by standard RT-PCR. These cloned V(D)J rearrangements were introduced into expression vectors. Recombinant antibodies were obtained by co-transfection of these expression vectors into Expi293F cells. ≥4 mg of purified IgGs was obtained (not shown).
Based on the obtained V(D)J sequences from each B-cell culture, paired heavy and light chains were re-expressed (as recombinant mouse IgG1 and IgG2c antibodies) in Expi293F cells (Kuraoka et al. Immunity 2016; DiLillo et al. Nature Medicine 2013). […] As expected, all recombinant antibodies reacted specifically with HSV-2 G lysates (FIG. 3). […] Binding of recombinant antibodies to HSV-2 G lysates was tested by ELISA. Both heavy and light chain V(D)J rearrangements were amplified from selected single B-cell culture wells (22D10, 32H6, 33B8, and 35H7) by standard RT-PCR. These cloned V(D)J rearrangements were introduced into expression vectors. Recombinant antibodies were obtained by co-transfection of these expression vectors into Expi293F cells. ≥4 mg of purified IgGs was obtained (not shown). […]

[3] = target: human herpesvirus glycoprotein B (gB) (Human herpesvirus 2, UniProt P08666); test: Immunoprecipitation-Mass Spectrometry (IP-MS) target identification; type: binding
Method: FIG. 7A-7B. Immunoprecipitation-Mass Spectrometry (IP-MS) was performed to identify the binding targets of 22D10, 33B8, and BMPC-23 antibodies.
IP-MS was performed to identify the targets of 22D10, 33B8, and BMPC-23 antibodies.

HSV-2 = test: Passive transfer in vivo protection assay, lethal HSV-2 challenge; design: species or system mice
Method: Mice were prime-boost immunized with ΔgD-2 and the spleens, draining lymph nodes or bone marrow were isolated. Germinal center (GC) B cells were then cultured on NB-21.2D9 cells (Nojima cultures). After culture, supernatants were screened for the presence of HSV-lysate binding IgG by ELISA. The V(D)J rearrangements amplified from selected GC B-cell cultures for the B-cell antigen receptor (BCR) repertoire analysis in GC B cell clones among individual mice were sequenced. Then, reconstituted antibodies from selected single GC B cell cultures and from single, bone marrow plasmacytes were evaluated for ability to activate the mFcγRIV in vitro and to protect mice in a passive transfer model.
Both IgG1 and IgG2c forms of 22D10, 33B8, and BMPC-23 antibodies (≥4 mg each) were assessed for reproducibility of in vivo protection assay, and any dependency on Ig isotype for protection. […] To test roles of Ig isotypes on ability to provide protection, IgG1 and IgG2c isotypes of these three antibodies were generated and assessed for ability to activate mFcγRIV signaling (as a measurement for ADCC), and for in vivo protection assay.

B1: HSV010-28: gB-1 specific mouse monoclonal IgG; IgH SEQ ID NO: 60, IgL SEQ ID NO: 62 (antibody, V domains shown)
VH: QIQLVQSGPELKKPGETVKISCKASGYTFTTYGMSWVKQAPGKGLKWMGWINTYSGVSTYADDFKGRFAFSLETSASTAYLQINNLKNEDTATYFCAQVNYAMDYWGQGTSVTVSSA
VL: DIVMTQSHKFLSTSVGDWVTITCKASQDVSTAVAWFQQKPGQSPKVLIYSASYRYTGVPDRFTGSGSGTDFTFTISSVQAEDLAVYYCQQHYSTPRTFGGGTKLEIKR
modifications: HSV010-28 heavy chain; HSV010-28 light chain
Target antigens [1]: gB
Competition with BMPC-23 (gB-1): Weak
Binding to HSV-lysate [2]: Yes

B2: 22D10: monoclonal antibody from germinal center B cell; IgH SEQ ID NO: 24, IgL SEQ ID NO: 26 (antibody, V domains shown)
VH: DVQLQESGPALVKPSQTVSLTCTVTGYSITNGNHWWNWIRQVSGSKLEWLGYIRSSGSSDSNPSLKSRISITRDTSKNQLFLHLNSMTTEDIATYYCARGGGLRHYFDYWGQGTTLTVSSA
VL: DIQMTQSPASLSASVGDTVTITCRASGNIHNYLAWYHQKQGKSPQLLVYHAETLTDGVPSRFSGSGSGTQYSLKINSLQPEDFGSYYCQHFWSTPYTFGGGTKLEIKR
modifications: 22D10 heavy chain; 22D10 light chain
Binding to control, uninfected Vero lysate (uninfected Vero lysate): did not bind
Target antigens [1]: (not gB)
Binding target identified by IP-MS [3]: human herpesvirus glycoprotein B (gB)
Mice protected from lethal challenge (HSV-2; IgG2c version, overall results from 2 independent experiments, passive transfer): 5/10
in vivo protection (HSV-2; Table 3 summary): Yes
Protection against lethal HSV-2 challenge (HSV-2; as IgG2c, passive transfer, overall survival, epithelial and neurological assays): significant protection; also recorded: provides protection
Binding of recombinant antibodies to HSV-2 G lysates ([2]; ELISA, recombinant antibodies expressed in Expi293F cells): Retention of HSV-2 G lysate-binding
Binding to HSV-lysate [2]: Yes

B3: HSV010-9: gB-1 specific mouse monoclonal IgG; IgH SEQ ID NO: 48, IgL SEQ ID NO: 50 (antibody, V domains shown)
VH: QVQLQQPGAELVKPGASVKLSCKSSGYTFTSYWMHWVKQRPGQGLEWIGMIHPNSGITHYNEKFKTKATLTVDKSSSTAYMQLSSLTSEDSAVSYCARGSNSGSAWFAYWGQGTLVTVSAA
VL: DIQMTQSSSYLSVSLGGRVTITCKASDHINNWLAWYQQKPGNAPRLLISGATSLETGVPSRFSGSGSGKDYTLSITSLQTEDVATYYCQQYWSTPLTFGAGTKLELKR
modifications: HSV010-9 heavy chain; HSV010-9 light chain
Target antigens [1]: gB
Competition with BMPC-23 (gB-1): Weak
Binding to HSV-lysate [2]: Yes

B4: HSV010-13: gB-1 specific mouse monoclonal IgG; IgH SEQ ID NO: 52, IgL SEQ ID NO: 54 (antibody, V domains shown)
VH: B3 VH with S24A, M34I, R40G, S94C, N101S
VL: B3 VL with V13E, T94S
modifications: HSV010-13 heavy chain; HSV010-13 light chain
Target antigens [1]: gB
Competition with BMPC-23 (gB-1): Weak
Binding to HSV-lysate [2]: Yes

B5: HSV010-14: gB-1 specific mouse monoclonal IgG; IgH SEQ ID NO: 56, IgL SEQ ID NO: 58 (antibody, V domains shown)
VH: B3 VH with S24A, M34I, T58A, N61S, T66S, K67T, A92S, S94Y, N101S
VL: B3 VL with S26G
modifications: HSV010-14 heavy chain; HSV010-14 light chain
Target antigens [1]: gB
Competition with BMPC-23 (gB-1): Weak
Binding to HSV-lysate [2]: Yes
